{
  "source": "patent US6365350B1",
  "about": "“Method of DNA sequencing” (The Institute of Physical and Chemical Research, priority 1997, dated 2002)",
  "molecules": {"B1": {"name": "F644Y/L665P/F667Y: mutant T7 RNA polymerase introduced with F644Y/L665P/F667Y mutations (protein)", "chain": "MNTINIAKNDFSDIELAAIPFNTLADHYGERLAREQLALEHESYEMGEARFRKMFERQLKAGEVADNAAAKPLITTLLPKMIARINDWFEEVKAKRGKRPTAFQFLQEIKPEAVAYITIKTTLACLTSADNTTVQAVASAIGRAIEDEARFGRIRDLEAKHFKKNVEEQLNKRVGHVYKKAFMQVVEADMLSKGLLGGEAWSSWHKEDSIHVGVRCIEMLIESTGMVSLHRQNAGVVGQDSETIELAPEYAEAIATRAGALAGISPMFQPCVVPPKPWTGITGGGYWANGRRPLALVRTHSKKALMRYEDVYMPEVYKAINIAQNTAWKINKKVLAVANVITKWKHCPVEDIPAIEREELPMKPEDIDMNPEALTAWKRAAAAVYRKDKARKSRRISLEFMLEQANKFANHKAIWFPYNMDWRGRVYAVSMFNPQGNDMTKGLLTLAKGKPIGKEGYYWLKIHGANCAGVDKVPFPERIKFIEENHENIMACAKSPLENTWWAEQDSPFCFLAFCFEYAGVQHHGLSYNCSLPLAFDGSCSGIQHFSAMLRDEVGGRAVNLLPSETVQDIYGIVAKKVNEILQADAINGTDNEVVTVTDENTGEISEKVKLGTKALAGQWLAYGVTRSVTKRSVMTLAYGSKEYGFRQQVLEDTIQPAIDSGKGPMYTQPNQAAGYMAKLIWESVSVTVVAAVEAMNWLKSAAKLLAAEVKDKKTGEILRKRCAVHWVTPDGFPVWQEYKKPIQTRLNLMFLGQFRLQPTINTNKDSEIDAHKQESGIAPNFVHSQDGSHLRKTVVWAHEKYGIESFALIHDSFGTIPADAANLFKAVRETMVDTYESCDVLADFYDQFADQLHESQLDKMPALPAKGNLNLRDILESDFAFA"}},
  "key": {"3′-dATP": {"test_system": "3′-dATP", "assay": "Inhibition of [α-32P]UTP incorporation by 3′-dATP in transcription reaction (relative activity for 3′-dATP)", "assay_type": "biochemical"}, "dye terminators": {"test_system": "dye terminators", "assay": "Sequencing reaction utilizing mutant T7 RNA polymerase F644Y/L665P/F667Y (Example 8)", "assay_type": "biochemical", "details": "PCR product template, n=4 dye terminators, FIG. 41"}, "[1]": {"test_system": "DNA containing T7 promoter", "details": "in vitro, compared with wild type T7 RNA polymerase", "experimental": "Subsequent steps for purification of enzyme should be performed at a temperature lower than room temperature, preferably 0-5° C. unless otherwise indicated. The E. coli cells were washed with 10 times relative to the cell weight of a washing buffer (20 mM Tris-HCl, pH 8.1, 130 mM NaCl, 2 mM EDTANa2 at 25° C.), centrifuged again (5,000×g, 4° C., 10 minutes), suspended in 10 times in volume of a sonication buffer [50 mM Tris-HCl, pH 8.1, 100 mM NaCl, 0.1 mM EDTANa2, 5 mM dithiothreitol (DTT), 0.1 mM benzamidine, 30 μg/ml phenylmethylsulfonyl fluoride (PMSF), 10 μg/ml bacitracin], and sonicated by using Sonifier 450 (Branson) at 80W for more than 15 minutes to destroy the cells and reduce the viscosity of the cells. Then, the cell suspension is centrifuged at 12,000×g and 4° C. for ten minutes to remove the cell debris. 10% streptomycin sulfate was slowly added dropwise to the resulting supernatant to a final concentration of 2.0% with stirring, and stirring was further continued for 30 minutes. The supernatant was centrifuged at 12,000×g and 4° C. for ten minutes to remove precipitates, and slowly added with ammonium sulfate powder with stirring to form precipitates. In this case, precipitates were first collected by 30% saturation of ammonium sulfate (30% ammonium sulfate precipitation), and the resulting supernatant was further added with ammonium sulfate to 60% saturation with stirring to form precipitates again (30-60% ammonium sulfate precipitation). The supernatant was added again with ammonium sulfate powder to 90% ammonium sulfate saturation, and stirred at 4° C. for 1 hour, and the precipitates were collected by centrifugation. […] The.30′60% ammonium sulfate fraction was suspended in a small amount of column buffer (20 mM KPO4, pH 7.7, 100 mM NaCl, 1 mM DTT, 30 μg/ml PMSF), and desalted by dialysis against 500 ml of the same buffer for 16hours. The dialysate was applied on a heparin-Sepharose column of 5 ml volume (Pharmacia Biotech). Subsequently, the column was washed with the same buffer until any material absorbing ultraviolet ray at 280 nm disappeared, and eluted with a linear gradient of 0.1 M to 0.64 M NaCl in the same buffer of about 40 times volume of the column volume. The eluent was collected in test tubes as fractions of a suitable volume, and immediately subjected to SDS-acrylamide gel electrophoresis for protein analysis to identify fractions containing proteins around a molecular weight considered to be of the objective T7 RNA polymerase. […] The fractions containing the protein were collected, and desalted by dialysis against about 1 liter of the column buffer (20 mM KPO4, pH 7.7, 100 mM NaCl, 1 mM DTT, 30 μg/ml PMSF) for 16 hours. The fractions desalted by dialysis were applied to a Q-Sepharose column (Pharmacia Biotech) of 5 ml volume that preliminarily equilibrated with the same buffer, and the column was washed with the same buffer until any material absorbing ultraviolet ray at 280 nm disappeared, and eluted with a linear gradient of 0.1 M to 0.64 M NaCl in the same buffer of about 40 times volume of the column volume. The eluent was collected in test tubes as fractions of a suitable volume, and immediately subjected to SDS-acrylamide gel electrophoresis for protein analysis to identify fractions containing proteins around a molecular weight considered to be of the objective T7 RNA polymerase. […] The fractions containing the protein were collected, dialyzed against 500 ml of storage buffer (50% glycerol, 20 mM KPO4, pH 7.7, 100 mM NaCl, 1 mM DTT, 30 μg/ml PMSF) for 16 hours, and stored at −20° C. until use. In vitro RNA synthesis activity and activity of the contaminated ribonuclease of this sample were examined."}, "[2]": {"test_system": "3′-dATP, 3′-dGTP, 3′-dCTP, 3′-dUTP and derivatives thereof", "description": "The T7 RNA polymerases introduced with mutations were purified, and their abilities of promoter sequence specific RNA synthesis and incorporation of ribonucleoside 5′-triphosphates including ATP, GTP, CTP, UTP and derivatives thereof, as well as 3′-DATP, 3′-dGTP, 3′-dCTP, 3′-dUTP and derivatives thereof were compared with those of wild type T7 RNA polymerase.\nFor two kinds of reaction mixture (with or without 3′-DATP, final concentration was 100 μM), the reaction was performed at 37° C. for 60 minutes. The whole reaction mixture was spotted on DE81 paper (Whatman), washed three times with phosphate buffer, and dried. The DE81 paper was placed into a scintillation vial, and radioactivity was measured using a scintillation counter (Beckman) for each reaction. Degree of inhibition of the [α-^32P]UTP incorporation was calculated by comparing the values obtained with and without 3′-dATP based on the measured radioactivity."}},
  "note": "Entries after “also recorded” stand apart in the source; their conditions may differ.",
  "data": [
    {"molecule": "B1", "values": [
      {"measurement": "bias for the 3′-dATP incorporation", "setting": "3′-dATP; among the mutant enzymes prepared", "value": "the least bias"},
      {"measurement": "more likely to incorporate 3′-dATP in comparison with the wild type enzyme", "setting": "3′-dATP; from Table 1", "value": 5.58, "unit": "times"},
      {"measurement": "Relative activity of RNA polymerase for 3′-dATP", "setting": "3′-dATP; relative value of inhibition degree of [α-32P]UTP incorporation by 100 μM 3′-dATP, wild type normalized to 1.000, 37° C., 60 minutes", "value": 5.580},
      {"measurement": "incorporation rate of dye terminators (electrogram)", "setting": "dye terminators", "value": "improvement of incorporation rate of dye terminators"},
      {"measurement": "RNA synthesis activity", "setting": "[1]", "value": "maintained sufficient RNA synthesis activity"},
      {"measurement": "bias of incorporation observed in the wild type", "setting": "[2]", "value": "markedly reduced"},
      {"measurement": "ability for incorporating 3′-dATP, 3′-dGTP, 3′-dCTP, 3′-dUTP and derivatives thereof", "setting": "[2]; compared with wild type T7 RNA polymerase", "value": "marked improvement; also recorded: the highest; also recorded: markedly improved ability"}
    ]}
  ]
}
